What was measured:
Assay in all cases: SDS-PAGE under non-reducing conditions
[1] = target: FG-IncD ΔN (38-146) (Chlamydia trachomatis)
[2] = target: FG-IncD M (FLAG-tagged TM region of IncD) (Chlamydia trachomatis)
[3] = target: FG-IncD ΔC (aa 1-91) (Chlamydia trachomatis)

FG-IncD ΔN (38-146) (domain or fragment)
stoichiometry N [1]: 2

FG-IncD M (FLAG-tagged TM region of IncD) (domain or fragment)
stoichiometry N [2]: 2

FG-IncD ΔC (aa 1-91) (domain or fragment)
stoichiometry N [3]: 2

Source: paper PMC6219635
